# According to patent US20230295310A1 (ABCELLERA BIOLOGICS, published 2023):
# Where a chain is given by its changes, count along the chain named.
# B1: mAb 65 (antibody, V domains shown)
# VH: QVQLVESGGGVVQPGRSLRLSCAASGFTFSGYGMHWVRQAPGKGLDWVAIIYYNGNNKYYADSVKGRFTISRDNSKNTLYLQMNSLRAEDTAVYYCARGGGYNWFDPWGQGTLVIVSS
# VL: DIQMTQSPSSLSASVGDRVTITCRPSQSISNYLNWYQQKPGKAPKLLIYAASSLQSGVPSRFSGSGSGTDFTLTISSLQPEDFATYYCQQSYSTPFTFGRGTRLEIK
# B2: mAb 81 (antibody, V domains shown)
# VH: B1 VH with V5A, N54D, N56K, I115T
# VL: DIQMTQSPSSLSASVGDRVTITCRPSQTISNYLNWYQQDPGKAPKLLIYAASSLQSGVPSRFSGSGSGTDFTLTISSLQPEDFATYYCQQSYSTPITFGRGTRLEIK
# B3: mAb 42 (antibody, V domains shown)
# VH: QAQLVQSGSELKKPGASVKVSCKASGYTFTKHSMNWVRQAPGQGLEWMGWINTNTGNPTYAQGFTGRFVFSLDTSVTTAYLQISSLKAEDTAVYYCAREGDYDFWSGFFNFDYWGQGTLVTVSS
# VL: DIQMTQSPSSLSASVGDRVTITCRASQGIRNDLGWYQQKPGKAPKRLIYAASSLQSGVPSRFSGSGSGAEFTLTISSLQPEDFATYYCLQHNSYPRTFGQGTKVEIK
# B4: mAb 53 (antibody, V domains shown)
# VH: QVQLVQSGAEVKKPGASVKVSCKASGYTFTSYDINWVRQATGQGLEWMGWMNPKSGKTGYAQKFQGRITMTRNTPISTVYMDLSSLRSEDTAVYYCAREGHYDFWTGYYSFDYWGQGTLVTVSS
# VL: B3 VL with K39T, A69T, N92Y, R96Y, V104L
# B5: mAb 52 (antibody, V domains shown)
# VH: QVQLVQSGAEVKKPGASVKVSCKASGYTFTSHDINWVRQATGQGLEWMGWLNPNSGKTGYAQKFQGRVTMARDTSMYTADMELSSLRFEDTAVYYCARVGHYDMWPGFFSFDYWGQGTLVTVSS
# VL: B3 VL with V19I, T20I, G28D, G66R, A69T, Q79H, N92R, R96Y, K103N, V104L
# B6: mAb 55 (antibody, V domains shown)
# VH: QVQLEQSGAEVKKPGASVKVSCKTSGYIFANYDINWVRQATGQGLEWMGWMNPKSGKAGYAQKFQGRVTMTSNTPINTAYMELSSLRSEDTAVYYCAREGHYDFWRGFYSFDYWGQGILVTVSS
# VL: B3 VL with A50T, A69T, Y87F, H91Y, S93T, R96Y, V104L
# B7: mAb 44 (antibody, V domains shown)
# VH: B3 VH with K31R, S33A, T77S, Q82K, A97V
# VL: B3 VL with Y36F, K45T
# B8: mAb 47 (antibody, V domains shown)
# VH: B3 VH
# VL: B3 VL with A69T
# B9: mAb 50 (antibody, V domains shown)
# VH: B3 VH with K31R, S33A
# VL: B3 VL with Y36F, K45T
# B10: mAb 46 (antibody, V domains shown)
# VH: EGQLVESGGGLVQPGGSLRLSCVASGFTLSSYTLNWVRQAPGKGLEWVSYISSTSRTIYYSDSVKGRFTISRDNAKNSLYLQMNSLRDEDTALYYCAREDYYDSSGFDYWGQGTLVTVSS
# VL: AIRMTQSPSSFSASTGDRVTITCRASQGISSYLAWYQQKPGKAPKLLIYTASTLQSGVPSRFSGSGSGTDFTLTIRSLQSEDFATYYCQQYYSYPRTFGQGTKVEIK
# B11: mAb 49 (antibody, V domains shown)
# VH: B10 VH with G2V, Q13P, S30R, L34M, K43Q, V48I, M83V, Y109C
# VL: B10 VL with S30F, S31N, T50S, A51T, S77G, F83L, Y94F, E105D
# B12: mAb 51 (antibody, V domains shown)
# VH: B10 VH with G2V, V23A, L34M, T54S, T69S, Y109N
# VL: B10 VL
# B13: mAb 54 (antibody, V domains shown)
# VH: EVQLEESGGGLVQPGGSLRLSCAASGFTFSRYSMNWVRQAPGKGLEWFSYISSSSRTIYYADSVKGRFTMSRDNAKNSLYLQMNSLRDEDTAVYFCARGDYYDSEGMDVWGKGTTVTVSS
# VL: DIQMTQSPSTLSASVGDRVTITCRASQTITTWLAWYQQKPGKAPKLLIYKASTLESGVPSRFSGSGSGTEFTLTISSLQPDDFATYHCQQYKTFSYTFGQGTKLDIK
# B14: mAb 235 (antibody, V domains shown)
# VH: QGKLVESGGGVVQPGRSLRLSCVASGFTFSGYGMHWVRQAPNKGLEWVAIIYYDGKNKYYADSVKGRFTVSRDNSKNTLYLQLNNLRAEDTAVYYCVRGPGYNWFDPWGQGTLVTVSS
# VL: EIVLTQSPDFQSVTPKEKVTITCRASQNIGSSLHWYQQKPDQSPKLFIKHASQSFSGVPSRFSGSGSGTDFTLTINSLEAEDAATYYCHQSSSLPYTFGQGTKLEIK
# notes: VH/VL only
# B15: mAb 245 (antibody, V domains shown)
# VH: B14 VH with G2V, N42G, A61V, V70I, N85S, P107L, S117A
# VL: B14 VL with N28S, F47L, H50Y
# notes: VH/VL only
# B16: mAb 236 (antibody, V domains shown)
# VH: B14 VH with G2V, N42G, V64A, N85S, P107S
# VL: B14 VL with N28S, S32N, F47L, H50Y, A51T
# notes: VH/VL only
# B17: mAb 242 (antibody, V domains shown)
# VH: B14 VH with A40V, V70I, T78M, L83M, N85S, A88V
# VL: B14 VL with F47L, H50L, A51T
# notes: VH/VL only
# B18: mAb 243 (antibody, V domains shown)
# VH: B14 VH with V70I, T78M, L83M, N85S, A88V
# VL: B14 VL with F47L, A51T, D70A
# notes: VH/VL only
# B19: mAb 272 (antibody, V domains shown)
# VH: EIQLVESGGGLVQPGESLKLSCAGSGFTFSVSAMHWVRQASGKGLEWVGRIRNKANSYATAYAASVKGRFTLSRDDSKNTAYLQMNSLKTEDTAVYYCSSYYYLSGTYYNYWGQGTLVTVSS
# VL: B3 VL with G28V, Y49H, A50S, S56G, A69T, L89Q, S93V, Y94N, R96C, V104L
# notes: VH/VL only
# B20: mAb 271 (antibody, V domains shown)
# VH: B19 VH with N86D
# VL: B3 VL with G28V, Y49H, A50S, S56G, A69T, L89Q, S93V, Y94N, R96C, V104L
# notes: VH/VL only
# B21: mAb 270 (antibody, V domains shown)
# VH: B19 VH with A63D, K78R
# VL: B3 VL with G28V, Y49H, A50S, S56G, A69T, L89Q, S93V, Y94N, R96C, V104L
# notes: VH/VL only
# B22: mAb 152 (antibody, V domains shown)
# VH: QVQLVQSGAEVKKPGASVKVSCKASGYTFTAYHTHWVRQAPGQGLEWMGWIYPKSGRTTYTQKFQGRVTMTRDTSISTVYMELSRLKSDDTAVYYCARVGALLFDYWGQGTLVTVSS
# VL: not shown
# B23: mAb 109 (antibody, V domains shown)
# VH: QVQLVESGGGVVQPGRSLRLSCVASGFPFRSYGMHWVRQAPGKGLEWVAFIWYDGSNKYYADSVRGRFTISRDNFKKMVYLQMNSLRAEDTAVYYCARDLAGIYAFDVWGQGTVVTVSS
# VL: EIVMTQSPATLSVSPGERATLSCRASQSVSSNLAWYQQKPGQAPRLLIYGASTRATGIPARFSGSGSGTEFTLTVSSLQSEDFAIYYCQQYNNWRPLTFGGGTKVEIK
# B24: mAb 90 (antibody, V domains shown)
# VH: EVQLVESGGGLVQPGGSLKLSCAASGFTFSGSAMHWVRQASGKGLEWVGRIRTKPNSYATSYAASVKDRFTISRDDSKNTAYLQMNSLKTEDTAVYYCIRGELEPWGQGTLVTVSS
# VL: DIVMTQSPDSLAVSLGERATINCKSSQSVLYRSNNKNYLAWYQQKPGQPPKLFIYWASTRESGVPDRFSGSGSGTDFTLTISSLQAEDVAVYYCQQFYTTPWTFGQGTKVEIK
# Target: T1, human CD3 expressed on cells (human, UniProt P07766 23-207; P04234 22-171; P09693 23-182)
# T1 construct: whole, on cells; CD3 complex on Jurkat cells and on human primary T cells
# Test: flow cytometry, 25 nM
# Protocol: (§1) Purified antibodies were confirmed to bind CD3 expressed on cells using the CytoFLEX S or LX flow cytometers (Beckman Coulter). Antibodies were diluted to 25 nM in FACS buffer (PBS+2% FBS) and were incubated with CD3-expressing cells for 30 minutes at 4° C. […] The median fluorescence intensity of the binding signal for each antibody was normalized to the isotype control to obtain a fold over isotype value. An antibody with a fold over isotype (FOI) of ≥10 was considered to be positive for binding.
# T1 sequence (P07766 23-207, chain 1 of 3): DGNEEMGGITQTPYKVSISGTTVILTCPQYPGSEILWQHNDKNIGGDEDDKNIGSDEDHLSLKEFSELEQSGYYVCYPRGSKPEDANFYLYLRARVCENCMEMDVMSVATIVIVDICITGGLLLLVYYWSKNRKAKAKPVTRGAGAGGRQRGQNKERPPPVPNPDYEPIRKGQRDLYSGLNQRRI
# T1 sequence (P04234 22-171, chain 2 of 3): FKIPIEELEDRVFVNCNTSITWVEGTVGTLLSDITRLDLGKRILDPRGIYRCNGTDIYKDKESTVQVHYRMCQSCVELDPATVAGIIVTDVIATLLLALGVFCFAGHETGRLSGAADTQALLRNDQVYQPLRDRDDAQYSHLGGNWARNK
# T1 sequence (P09693 23-182, chain 3 of 3): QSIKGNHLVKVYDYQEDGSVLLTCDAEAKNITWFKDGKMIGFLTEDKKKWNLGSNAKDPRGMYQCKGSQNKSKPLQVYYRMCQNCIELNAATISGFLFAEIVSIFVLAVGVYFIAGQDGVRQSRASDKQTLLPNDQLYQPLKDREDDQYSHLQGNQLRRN
Human primary T Cell Binding (FOI),Jurkat Cell Binding (FOI),Binder
199,184,B1
158,165,B2
96.2,111,B3
34.8,44.6,B4
185,181,B5
104,151,B6
110,131,B7
136,112,B8
86.4,92.5,B9
96.9,107,B10
191,178,B11
102,99.8,B12
98.5,111,B13

# Target: T2, cynomolgus monkey CD3 expressed on cyno primary T cells (cynomolgus monkey, UniProt Q95LI5 22-198; Q95LI8 22-171; Q95LI7 23-181)
# T2 construct: whole, on cells; CD3 complex on purified cynomolgus monkey CD3 pan T cells; also called cyno CD3
# Test: flow cytometry, cyno primary T cells
# Protocol: as §1
# T2 sequence (Q95LI5 22-198, chain 1 of 3): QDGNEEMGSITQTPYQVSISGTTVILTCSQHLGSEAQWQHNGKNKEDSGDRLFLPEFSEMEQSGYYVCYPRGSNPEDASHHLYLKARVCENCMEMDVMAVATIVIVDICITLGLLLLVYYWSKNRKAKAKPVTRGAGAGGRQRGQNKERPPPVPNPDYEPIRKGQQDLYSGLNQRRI
# T2 sequence (Q95LI8 22-171, chain 2 of 3): as the sequence (P04234 22-171, chain 2 of 3) above, with I5V, N15K, I20V, S32T, D33N, I34N, T64A, S74N, V83L, H141R counted along it
# T2 sequence (Q95LI7 23-181, chain 3 of 3): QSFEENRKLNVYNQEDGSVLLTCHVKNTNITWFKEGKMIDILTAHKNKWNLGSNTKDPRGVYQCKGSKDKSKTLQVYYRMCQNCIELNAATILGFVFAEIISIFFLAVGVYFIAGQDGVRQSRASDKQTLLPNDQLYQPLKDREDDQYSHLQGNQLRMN
row,Binder,binding result
1,B14,no binding (tested: FOI <10 (FOI >=10 = positive); 25 nM)
2,B15,no binding (tested: FOI <10 (FOI >=10 = positive); 25 nM)
3,B16,no binding (tested: FOI <10 (FOI >=10 = positive); 25 nM)
4,B17,no binding (tested: FOI <10 (FOI >=10 = positive); 25 nM)
5,B18,no binding (tested: FOI <10 (FOI >=10 = positive); 25 nM)
6,B19,no binding (tested: FOI <10 (FOI >=10 = positive); 25 nM)
7,B20,no binding (tested: FOI <10 (FOI >=10 = positive); 25 nM)
8,B21,no binding (tested: FOI <10 (FOI >=10 = positive); 25 nM)

# Target: T3, cynomolgus monkey CD3 expressed on primary T cells (cynomolgus monkey, UniProt Q95LI5 22-198; Q95LI8 22-171; Q95LI7 23-181)
# T3 construct: whole, on cells; CD3 complex on purified cynomolgus monkey T cells; also called cyno CD3
# Test: flow cytometry, 25 nM, cyno primary T cells
# Protocol: as §1
# T3 sequence (Q95LI5 22-198, chain 1 of 3): as the sequence (Q95LI5 22-198, chain 1 of 3) above
# T3 sequence (Q95LI8 22-171, chain 2 of 3): as the sequence (P04234 22-171, chain 2 of 3) above, with I5V, N15K, I20V, S32T, D33N, I34N, T64A, S74N, V83L, H141R counted along it
# T3 sequence (Q95LI7 23-181, chain 3 of 3): as the sequence (Q95LI7 23-181, chain 3 of 3) above
row,binding result,Binder
1,no binding (tested: FOI >=10 = positive),B1
2,no binding (tested: FOI >=10 = positive),B2
3,no binding (tested: FOI >=10 = positive),B3
4,no binding (tested: FOI >=10 = positive),B4
5,no binding (tested: FOI >=10 = positive),B5
6,no binding (tested: FOI >=10 = positive),B6
7,no binding (tested: FOI >=10 = positive),B7
8,no binding (tested: FOI >=10 = positive),B8
9,no binding (tested: FOI >=10 = positive),B9
10,no binding (tested: FOI >=10 = positive),B22
11,no binding (tested: FOI >=10 = positive),B10
12,no binding (tested: FOI >=10 = positive),B11
13,no binding (tested: FOI >=10 = positive),B12
14,no binding (tested: FOI >=10 = positive),B13
15,no binding (tested: FOI >=10 = positive),B23
16,no binding (tested: FOI >=10 = positive),B24
